{"source": "patent US20180201654A1", "about": "(UNIVERSITY OF SOUTHERN CALIFORNIA, published 2018)", "binders": {"B1": {"name": "vIRF4Δ^202-256 mutant (other)", "chain": "MPKAGGSEWATLWIIDALENNKFPYFSWFDRNNLLFAAPAPLPAGSDIPPGWYSVYHAFDEECDRVYGPSPVVGQTVYGRFGRLLRGTRRAVVRNDLRYSDTFGGSYVVWQLVRTPFKNCTYCYGAAYGPEKLQRFIQCLLSPPMQTTATRRSDTREQSYEEAGAAAPAPPKAPSGLRGRPRKSNRYYNVGDITTEQKAACLPGTAPPKPQHETRLAGTVSGVSGVAQTPGDTGQLAPPMRDGSRLPSTSPWIPACFPWGDLPVTGWWPQGASGLPEKVHPPTTGQFDPLSPRWTYTGIPSSQLNPAAPSWIPPHAQAGTFVGEFSQGAPLAPQGLLPQSGQCASAWLPRRETGAEGACGASTEGRAPQGAASERVYPFEPQPPSAPAPGYAKPSCYNWSPLAEPPATRPIRAPVWHPPVGHAVVPEVRTPLWIPWSSGGAPNQGLSHTQGGASATPSAGAPPTPEVAERQEPSSSGIPYVCQGDNMATGYRRVTTSSGALEVEIIDLTGDSDTPSTTVASTPLPVSGPRVFQPTVLYSAPEPAVNPEVSHLPTELERRECVCPGSGERPRVPLVSTYAGDRYAVGGYGPEQSLVPPPLGLPLTLSNLQGEDICTWEEGLGNILSELQEEPSSSTRQATDRRRPRSRSPHGRRTPVSHSGPEKPPSKMFFDPPDSQRVSFVVEIFVYGNLRGTLRREGDAGEAMLCSWPVGDTLGHLCQSFVPELLRIPRLTVPSPEQMEILNRVFEGLGHGFPIFCSMSGIYSRNATQVEGWWFGNPNSRYERILRSFSPRVPQQLFNTARYLATTAAIPQTPLSVNPVTCGTVFFGASPASTENFQNVPLTVKIFIGSIWDSLH"}, "B2": {"name": "vIRF4^153-256 (other)", "chain": "SDTREQSYEEAGAAAPAPPKAPSGLRGRPRKSNRYYNVGDITTEQKAACSVWIPVNEGASTSGMGSSGTRQVTQASSFTWRVPGDPPAPSTLTGPSDPHSSGAG"}, "B3": {"name": "Flag/HAUSP 205-1108 (enzyme)", "single chain": "WDSKKHTGYVGLKNQGATCYMNSLLQTLFFTNQLRKAVYMMPTEGDDSSKSVPLALQRVFYELQHSDKPVGTKKLTKSFGWETLDSFMQHDVQELCRVLLDNVENKMKGTCVEGTIPKLFRGKMVSYIQCKEVDYRSDRREDYYDIQLSIKGKKNIFESFVDYVAVEQLDGDNKYDAGEHGLQEAEKGVKFLTLPPVLHLQLMRFMYDPQTDQNIKINDRFEFPEQLPLDEFLQKTDPKDPANYILHAVLVHSGDNHGGHYVVYLNPKGDGKWCKFDDDVVSRCTKEEAIEHNYGGHDDDLSVRHCTNAYMLVYIRESKLSEVLQAVTDHDIPQQLVERLQEEKRIEAQKRKERQEAHLYMQVQIVAEDQFCGHQGNDMYDEEKVKYTVFKVLKNSSLAEFVQSLSQTMGFPQDQIRLWPMQARSNGTKRPAMLDNEADGNKTMIELSDNENPWTIFLETVDPELAASGATLPKFDKDHDVMLFLKMYDPKTRSLNYCGHIYTPISCKIRDLLPVMCDRAGFIQDTSLILYEEVKPNLTERIQDYDVSLDKALDELMDGDIIVFQKDDPENDNSELPTAKEYFRDLYHRVDVIFCDKTIPNDPGFVVTLSNRMNYFQVAKTVAQRLNTDPMLLQFFKSQGYRDGPGNPLRHNYEGTLRDLLQFFKPRQPKKLYYQQLKMKITDFENRRSFKCIWLNSQFREEEITLYPDKHGCVRDLLEECKKAVELGEKASGKLRLLEIVSYKIIGVHQEDELLECLSPATSRTFRIEEIPLDQVDIDKENEMLVTVAHFHKEVFGTFGIPFLLRIHQGEHFREVMKRIQSLLDIQEKEFEKFKFAIVMMGRHQYINEDEYEVNLKDFEPQPGNMSHPRPWLGLDHFNKAPKRSRYTYLEKAIKIHN", "notes": "N-terminal deletion fragment without the TRAF domain"}}, "key": {"[1]": {"molecular_target": "T1, HAUSP (Herpes virus-associated ubiquitin-specific protease), full length (human, UniProt Q93009 1-1102)", "T1 construct": "also called USP7; Flag-HAUSP", "experiment": "co-transfection in 293T cells (Flag-HAUSP with V5-vIRF4 constructs)"}, "[2]": {"molecular_target": "T2, HAUSP TRAF domain (HAUSP^62-205) (human, UniProt Q93009 62-205)", "T2 construct": "also called TRAF-like domain of HAUSP", "T2 sequence (Q93009 62-205)": "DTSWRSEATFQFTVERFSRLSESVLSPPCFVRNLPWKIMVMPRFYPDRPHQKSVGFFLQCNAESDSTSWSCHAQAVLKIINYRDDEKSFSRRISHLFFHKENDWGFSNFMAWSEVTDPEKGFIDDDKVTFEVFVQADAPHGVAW", "experiment": "ITC"}, "[3]": {"molecular_target": "T2, HAUSP TRAF domain (HAUSP^62-205)", "experiment": "ITC, titration against the HAUSP TRAF domain, 20 C"}, "[4]": {"molecular_target": "T3, vIRF4 (Kaposi's-sarcoma-associated-herpesvirus vIRF4), full length wild type (Kaposi's-sarcoma-associated-herpesvirus …, UniProt Q2HR73 1-911)", "T3 sequence": "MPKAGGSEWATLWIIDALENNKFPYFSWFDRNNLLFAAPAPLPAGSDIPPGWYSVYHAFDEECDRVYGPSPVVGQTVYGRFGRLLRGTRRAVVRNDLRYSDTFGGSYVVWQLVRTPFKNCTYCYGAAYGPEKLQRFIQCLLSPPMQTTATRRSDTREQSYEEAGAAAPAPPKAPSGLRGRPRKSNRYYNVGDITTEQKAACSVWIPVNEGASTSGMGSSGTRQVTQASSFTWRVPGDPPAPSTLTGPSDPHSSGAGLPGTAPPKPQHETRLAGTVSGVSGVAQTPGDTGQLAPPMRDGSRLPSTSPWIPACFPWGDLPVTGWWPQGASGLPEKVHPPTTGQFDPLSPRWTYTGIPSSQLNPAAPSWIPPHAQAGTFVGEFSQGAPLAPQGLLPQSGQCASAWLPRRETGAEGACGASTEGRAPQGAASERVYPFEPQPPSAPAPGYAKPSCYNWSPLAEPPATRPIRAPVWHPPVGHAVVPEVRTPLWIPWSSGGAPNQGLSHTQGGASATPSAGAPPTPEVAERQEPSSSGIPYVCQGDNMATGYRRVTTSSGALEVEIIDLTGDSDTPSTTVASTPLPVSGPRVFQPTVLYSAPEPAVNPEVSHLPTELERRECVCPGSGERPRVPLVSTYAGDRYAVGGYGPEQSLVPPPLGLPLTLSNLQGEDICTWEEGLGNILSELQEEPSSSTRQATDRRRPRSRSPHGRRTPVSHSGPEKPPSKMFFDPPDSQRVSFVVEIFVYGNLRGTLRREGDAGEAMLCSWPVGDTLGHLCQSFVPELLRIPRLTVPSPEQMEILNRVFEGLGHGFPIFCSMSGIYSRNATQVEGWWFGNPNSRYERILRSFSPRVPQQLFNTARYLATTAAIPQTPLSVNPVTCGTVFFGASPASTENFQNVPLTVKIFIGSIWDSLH", "experiment": "co-immunoprecipitation from transfected 293T cells, IP: V5, IB: Flag"}}}
{"binder": "B1", "values": [{"measurement": "binding result", "setting": "[1]", "value": "no binding"}]}
{"binder": "B2", "values": [{"measurement": "fold higher affinity (against vIRF4^153-216 and vIRF4^202-216)", "setting": "[2]", "value": 7, "unit": "fold"}, {"measurement": "Ka", "setting": "[3]", "value": "1.32e+07", "unit": "M⁻¹"}, {"measurement": "Kd", "setting": "[3]", "value": 76, "unit": "nM"}, {"measurement": "TΔS", "setting": "[3]", "value": -10.1, "unit": "kcal/mol"}, {"measurement": "n", "setting": "[3]", "value": 1.13}, {"measurement": "ΔG", "setting": "[3]", "value": -7.64, "unit": "kcal/mol"}, {"measurement": "ΔH", "setting": "[3]", "value": -17.7, "unit": "kcal/mol"}]}
{"binder": "B3", "values": [{"measurement": "binding result", "setting": "[4]", "value": "no binding"}]}
